Where “and” joins values, the source holds several entries; their conditions need not be identical. Equal values may be shown once.
Molecular target: Hepatitis B Virus core protein Cp149 dimer (Hepatitis B Virus)
Assay: resistive-pulse sensing

For “Hepatitis B Virus core protein Cp149 dimer (domain or fragment)”, which stoichiometry N is on record?
The stoichiometry N was 90 dimers and 120 dimers.
